Patent US20110105397A1, “METHOD FOR TREATING HEART FAILURE WITH STRESSCOPIN-LIKE PEPTIDES” (priority 2009, published 2011)
Read-outs that look alike come from different tables or passages of the source. Each block holds one molecule with its values, some of them ahead of it. Where no end group is shown, it is not given here.

Columns and labels:
[1] = test system: anaesthetized male Sprague-Dawley rats; assay: Hemodynamics in anaesthetized rats (IV bolus); assay type: in vivo, rat; settings: healthy anaesthetized rats
Method: The hemodynamic profile of h-SCP (SEQ ID NO:1) was determined in sodium pentobarbital anaesthetized male Sprague-Dawley rats (FIG. 10). A SPR-320 Mikro-Tip® integrated catheter-tipped micro-manometer (Millar Instruments, Houston, Tex., U.S.A.) was placed in the right femoral artery for blood pressure measurements, and another one directly in the left ventricle for LV pressure measurement. […] The changes in hemodynamic parameters induced by h-SCP (SEQ ID NO:1, full circle in FIG. 10) were blocked by pretreatment with anti-sauvagine-30 (SEQ ID NO:118, open circle in FIG. 10).

[2] = biological target: T1, CRHR1 (Homo sapiens, UniProt P34998); assay: CRHR1 radioligand binding, [125I]-(Tyr0)-sauvagine; set-up: host or cells: cell membranes
T1 sequence (P34998 24-415): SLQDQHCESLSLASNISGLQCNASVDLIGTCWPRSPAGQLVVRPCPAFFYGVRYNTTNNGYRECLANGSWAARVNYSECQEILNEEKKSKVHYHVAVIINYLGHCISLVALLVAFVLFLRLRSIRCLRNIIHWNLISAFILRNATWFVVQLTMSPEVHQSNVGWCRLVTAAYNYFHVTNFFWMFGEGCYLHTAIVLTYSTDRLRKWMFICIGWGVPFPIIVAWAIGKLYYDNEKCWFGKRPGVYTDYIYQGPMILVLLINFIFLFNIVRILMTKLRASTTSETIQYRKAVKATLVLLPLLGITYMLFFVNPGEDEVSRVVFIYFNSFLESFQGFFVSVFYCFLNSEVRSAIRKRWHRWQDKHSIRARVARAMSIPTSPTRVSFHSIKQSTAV
From the text: The solution was then homogenized with a Polytron tissue grinder at a setting of 10 and 7×3 s (Brinkmann Instruments, Westbury, N.Y.). […] The bound radioactivity was separated by filtration using a Multiscreen Resist manifold (Millipore Corp., Billerica, Mass., U.S.A). The filters were washed three times with ice-cold PBS at pH 7.5 and radioactivity retained on the filters was quantified by its liquid scintillation measured by a TopCount counter (Packard BioScience, Boston, Mass., U.S.A). All experiments were performed in triplicate.

[3] = test system: dogs with advanced heart failure; assay: Hemodynamic, angiographic, echocardiographic profile in anaesthetized dogs with advanced heart failure, IV infusion; assay type: in vivo, dog
Method: The effects of h-SCP (SEQ ID NO:1) on cardiovascular function were also assessed in anaesthetized dogs with advanced, irreversible heart failure of ischemic etiology (Sabbah et al., 1991, Am. J. Physiol., vol. 260, pp. H1379-H1384; Sabbah et al., 1994, Circulation, vol. 98, pp. 2852-2859; Chandler et al., 2002, Circ. Res., vol. 91, pp. 278-280). Progressive, advanced heart failure was produced in mongrel dogs by multiple sequential intracoronary microembolization with polystyrene latex microspheres. Dose infusions of 2.2, 4.3, and 7.3 ng/kg/min were administered intravenously over 60 minutes just following or just prior to hemodynamic, angiographic, echocardiographic, and Doppler measurements using conventional hemodynamic, angiographic, echocardiographic, and radiographic methods. The h-SCP polypeptide (SEQ ID NO:1) produced dose- (infusion-) dependent increases in LVEF and SV and decreases in left ventricular end diastolic pressure (LVEDP), left ventricular pressure during isovolumic relaxation (LV-dP/dt), systemic vascular resistance (SVR), and left ventricular end-systolic volume (LVESV) that correlated with plasma concentration. No significant change in heart rate, peak systolic aortic blood pressure, LV+dP/dt, mean pulmonary artery pressure, mean pulmonary artery wedge pressure, right atrial pressure, or myocardial oxygen consumption were recorded following any of the 1 hour intravenous infusions (Table 18 and FIGS. 12 A & B). The improvement in LV systolic and diastolic function was not associated with the development of de novo ventricular arrhythmias.
In order to determine the threshold effective dose-infusion in dogs with advanced heart failure, a further study was performed at lower dose infusions. In addition, the opportunity was taken to explore whether the increase in LVEF produced by higher dose-infusions of 4.3 ng/kg/min would remain stable over a longer infusion period, i.e. 120 minutes.
In order to understand the potential cardiovascular effects of neutralizing antibody formation to h-SCP (SEQ ID NO:1), SV30 (SEQ ID No. 118), a competitive antagonist of CRHR2, was administered to dogs (N=4) with advanced heart failure. […] These experiments with SV30 indicate that baseline cardiovascular parameters in dogs with advanced heart failure were not dependent upon endogenous hormone stimulation of CRHR2. Similar findings have been reported in healthy conscious and anaesthetized rats (Gardiner et al., J. Pharmacol. Exp. Ther., 2007, vol 321, pp. 221-226).

[4] = biological target: T2, human CRHR2 (Homo sapiens, UniProt Q13324); assay: CRHR2 radioligand binding, [125I]-anti-sauvagine-30, SK-N-MC membranes; settings: CRHR2
T2 construct: expressed in transfected cells
T2 sequence (Q13324 1-411): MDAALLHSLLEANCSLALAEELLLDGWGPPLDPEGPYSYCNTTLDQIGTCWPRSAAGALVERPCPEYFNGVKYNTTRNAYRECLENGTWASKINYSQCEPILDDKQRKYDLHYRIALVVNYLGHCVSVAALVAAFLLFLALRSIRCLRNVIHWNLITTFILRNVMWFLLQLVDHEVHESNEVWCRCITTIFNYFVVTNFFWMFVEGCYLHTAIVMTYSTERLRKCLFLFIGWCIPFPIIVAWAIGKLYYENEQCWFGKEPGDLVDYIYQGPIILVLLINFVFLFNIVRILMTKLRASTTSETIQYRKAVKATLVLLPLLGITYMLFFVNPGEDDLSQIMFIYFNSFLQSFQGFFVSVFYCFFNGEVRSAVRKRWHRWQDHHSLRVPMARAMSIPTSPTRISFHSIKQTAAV
Method: The binding profile of h-SCP (SEQ ID NO:1) at CRHR2 was determined in radioligand binding studies in a membrane preparation of SK-N-MC cells stably transfected with human CRHR2 using [^125I]-anti-sauvagine-30 as the radiolabel. […] The solution was then homogenized with a Polytron tissue grinder at a setting of 10 and 7×3 s (Brinkmann Instruments, Westbury, N.Y.). […] The supernatant was re-centrifuged at 26,892×g for 25 min at 4° Celsius with the final pellet being re-suspended in assay buffer. […] For competition studies, cell membranes of […] volume were incubated with either 60 pM [^125I]-anti-sauvagine-30 in 50 μl volume for the CRHR2 assay or with)[^125I]-([…]-sauvagine for the CRHR1 assay in the presence of 15 μl of competing ligand for 120 min having a total volume of 150 μl. […] The bound radioactivity was separated by filtration using a Multiscreen Resist manifold (Millipore Corp., Billerica, Mass., U.S.A). The filters were washed three times with ice-cold PBS at pH 7.5 and radioactivity retained on the filters was quantified by its liquid scintillation measured by a TopCount counter (Packard BioScience, Boston, Mass., U.S.A). All experiments were performed in triplicate. Data from individual competition curves were expressed as the percentage of specific [^125I]-anti-sauvagine-30 or)[^125I]-([…]-sauvagine binding (B) within each experiment. […] The competition curve obtained with h-SCP (SEQ ID NO:1) was biphasic.

[5] = biological target: T3, human corticotrophin releasing hormone receptor type 1 (CRHR1) (human, UniProt P34998 24-415); assay: radioligand competition against [125I]-(Tyr0)-sauvagine, CRHR1 assay, cell membranes
T3 construct: whole, on cells; cAMP assay on whole cells; radioligand assay on cell membranes; also called h-CRHR1; CRH receptor type 1
T3 sequence (looked up): T1 sequence (P34998 24-415)
Method: Frozen cell pellets were defrosted on ice in 15 ml of assay buffer that was composed of 10 mM HEPES, 130 mM NaCl, 4.7 mM KCl, 5 mM MgCl₂, and 0.089 mM bacitracin at pH 7.2 and 21±3° Celsius. The solution was then homogenized with a Polytron tissue grinder at a setting of 10 and 7×3 s (Brinkmann Instruments, Westbury, N.Y.). The homogenate was centrifuged at 4° Celsius at 800×g for 5 min with the pellet being discarded. The supernatant was re-centrifuged at 26,892×g for 25 min at 4° Celsius with the final pellet being re-suspended in assay buffer. All binding assays were conducted in 96-well Multiscreen GF/B filter plates (Millipore, Billericay, Mass., U.S.A.) that were pre-soaked in assay buffer with 0.3% PEI for 1 hour. […]
The bound radioactivity was separated by filtration using a Multiscreen Resist manifold (Millipore Corp., Billerica, Mass., U.S.A). The filters were washed three times with ice-cold PBS at pH 7.5 and radioactivity retained on the filters was quantified by its liquid scintillation measured by a TopCount counter (Packard BioScience, Boston, Mass., U.S.A). […]
Data from individual competition curves were expressed as the percentage of specific [¹²⁵I]-anti-sauvagine-30 or)[¹²⁵I]-(Tyr⁰-sauvagine binding (B) within each experiment.

[6] = biological target: T3, human corticotrophin releasing hormone …; assay: cell-based or functional assay
[7] = biological target: T4, human corticotrophin releasing hormone receptor type 2 (CRHR2) (human) (UniProt Q13324); assay: cell-based or functional assay
T4 sequence (looked up): T2 sequence (Q13324 1-411)

[8] = biological target: T4, human corticotrophin releasing hormone receptor type 2 (CRHR2) (human); assay: radioligand competition against [125I]-anti-sauvagine-30, CRHR2 membranes
[9] = biological target: T4, human corticotrophin releasing hormone receptor type 2 (CRHR2) (human); assay: radioligand competition against [125I]-anti-sauvagine-30, membranes of SK-N-MC cells with human CRHR2
[10] = biological target: T5, human corticotrophin releasing hormone receptor type 1 (CRHR1) (human), P34998; assay: radioligand competition against [125I]-(Tyr0)-sauvagine, CRHR1 assay, cell membranes; settings: remark: other sources report otherwise
T5 chain: T1 sequence (P34998 24-415)

[11] = biological target: T4, human corticotrophin releasing hormone receptor type 2 (CRHR2) (human); assay: cell-based or functional assay; remark: listed apart in the source
[12] = biological target: T6, human corticotrophin releasing hormone receptor type 2 (CRHR2) (human, UniProt Q13324 1-411); assay: cell-based or functional assay
T6 sequence (looked up): T2 sequence (Q13324 1-411)

[13] = biological target: T6, human corticotrophin releasing hormone …; assay: cell-based or functional assay; remark: listed apart in the source

Molecule: CC[C@H](C)[C@H](NC(=O)[C@@H](NC(=O)[C@H](CC(=O)O)NC(=O)[C@H](CC(C)C)NC(=O)[C@H](CC(C)C)NC(=O)[C@H](CC(C)C)NC(=O)[C@H](CCCNC(=N)N)NC(=O)[C@H](CC(N)=O)NC(=O)[C@H](CC(N)=O)NC(=O)[C@H](C)NC(=O)[C@H](C)NC(=O)[C@H](CCC(N)=O)NC(=O)[C@H](CCC(N)=O)NC(=O)[C@H](CCCCN)NC(=O)[C@H](CCC(=O)O)NC(=O)[C@H](CCCCN)NC(=O)[C@H](CCC(=O)O)NC(=O)[C@H](CCC(N)=O)NC(=O)[C@H](CCCCN)NC(=O)[C@H](CCC(=O)O)NC(=O)[C@@H](NC(=O)[C@H](CCC(=O)O)NC(=O)[C@@H](NC(=O)[C@H](CCSC)NC(=O)[C@H](CCCCN)NC(=O)[C@H](CCCNC(=N)N)NC(=O)[C@H](CC(C)C)NC(=O)[C@H](CC(C)C)NC(=O)[C@H](Cc1c[nH]cn1)NC(=O)C(N)Cc1ccccc1)[C@@H](C)CC)[C@@H](C)CC)[C@@H](C)O)C(N)=O (stereo partly drawn) [SEQ ID NO: 118, FHLLRKMIEIEKQEKEKQQAANNRLLLDTI-NH2, reference compound]
effect on baseline hemodynamic parameters [1]: did not inhibit baseline parameters | nH [2]: 1.00 ± 0.49 | effect on cardiovascular parameters ([3]; CRHR2 blocking doses in dogs with advanced heart failure (N=4)): without effect on cardiovascular parameters | CO ([3]; Table 20, AS-30 alone): 1.44 ± 0.04 L/min | HR ([3]; Table 20, AS-30 alone): 79 ± 3 beats/min | LV+dP/dt ([3]; Table 20, AS-30 alone): 1675 ± 109 mmHg/sec | LVEDP ([3]; Table 20, AS-30 alone): 15 ± 1 mmHg | LVEDV ([3]; Table 20, AS-30 alone): 68 ± 2.7 mL | LVEF ([3]; Table 20, AS-30 alone): 27 ± 0% | LVESV ([3]; Table 20, AS-30 alone): 50 ± 1.9 mL | MPAP ([3]; Table 20, AS-30 alone): 16 ± 0.7 mmHg | PSAP ([3]; Table 20, AS-30 alone): 94 ± 5 mmHg | SV ([3]; Table 20, AS-30 alone): 18 ± 0.8 mL | nH [4]: 1.15 ± 0.12

pKI [5]: 4.6 -log10(M) | pA50 [6]: < 5 -log10(M) | A50 (concentration required for 50% maximum effect), cAMP [7]: 0.4 nM | control pA50 across assay batches [7]: 9.47 to 9.74 -log10(M) | pA50 [7]: 9.4 -log10(M) | pIC50 (low affinity state) [8]: 6.6 -log10(M) | pKI [9]: 5.71 -log10(M)
B1: Human stresscopin with amidated C-terminus (peptide)
peptide: TKFTLSLDVPTNIMNLLFNIAKAKNLRAQAAANAHLMAQI-NH2
notes: 40-amino-acid peptide; also called h-SCP

pKI [10]: 4.96 -log10(M) | pA50 [6]: < 5 -log10(M) | pA50 [7]: 9.26 -log10(M) | pKI [9]: 6.49 -log10(M)
B2: human urocortin III (peptide)
peptide: FTLSLDVPTNIMNLLFNIAKAKNLRAQAAANAHLMAQI-NH2

pA50 [11]: 9.08 -log10(M) | pA50 [6]: 9.19 -log10(M) | pKI [9]: 8.51 -log10(M)
B3: r-UCN1 (peptide)
peptide: DDPPLSIDLTFHLLRTLLELARTQSQRERAEQNRIIFDSV-NH2

pA50 [12]: 7.1 -log10(M) | fold decrease in potency against the amidated parent peptide, cAMP [13]: ~200 fold
B4: non-amidated h-SCP (peptide)
peptide: TKFTLSLDVPTNIMNLLFNIAKAKNLRAQAAANAHLMAQI-OH
